Measured values: patent publication US20230391861A1 (Stanford University, published 2023)
Positions count from the first letter of the chain named.

T1: PTCH1 on NIH-3T3 / 3T3-Light2 cells (UniProt Q61115 1-1434, limits assumed)
T1 sequence (looked up): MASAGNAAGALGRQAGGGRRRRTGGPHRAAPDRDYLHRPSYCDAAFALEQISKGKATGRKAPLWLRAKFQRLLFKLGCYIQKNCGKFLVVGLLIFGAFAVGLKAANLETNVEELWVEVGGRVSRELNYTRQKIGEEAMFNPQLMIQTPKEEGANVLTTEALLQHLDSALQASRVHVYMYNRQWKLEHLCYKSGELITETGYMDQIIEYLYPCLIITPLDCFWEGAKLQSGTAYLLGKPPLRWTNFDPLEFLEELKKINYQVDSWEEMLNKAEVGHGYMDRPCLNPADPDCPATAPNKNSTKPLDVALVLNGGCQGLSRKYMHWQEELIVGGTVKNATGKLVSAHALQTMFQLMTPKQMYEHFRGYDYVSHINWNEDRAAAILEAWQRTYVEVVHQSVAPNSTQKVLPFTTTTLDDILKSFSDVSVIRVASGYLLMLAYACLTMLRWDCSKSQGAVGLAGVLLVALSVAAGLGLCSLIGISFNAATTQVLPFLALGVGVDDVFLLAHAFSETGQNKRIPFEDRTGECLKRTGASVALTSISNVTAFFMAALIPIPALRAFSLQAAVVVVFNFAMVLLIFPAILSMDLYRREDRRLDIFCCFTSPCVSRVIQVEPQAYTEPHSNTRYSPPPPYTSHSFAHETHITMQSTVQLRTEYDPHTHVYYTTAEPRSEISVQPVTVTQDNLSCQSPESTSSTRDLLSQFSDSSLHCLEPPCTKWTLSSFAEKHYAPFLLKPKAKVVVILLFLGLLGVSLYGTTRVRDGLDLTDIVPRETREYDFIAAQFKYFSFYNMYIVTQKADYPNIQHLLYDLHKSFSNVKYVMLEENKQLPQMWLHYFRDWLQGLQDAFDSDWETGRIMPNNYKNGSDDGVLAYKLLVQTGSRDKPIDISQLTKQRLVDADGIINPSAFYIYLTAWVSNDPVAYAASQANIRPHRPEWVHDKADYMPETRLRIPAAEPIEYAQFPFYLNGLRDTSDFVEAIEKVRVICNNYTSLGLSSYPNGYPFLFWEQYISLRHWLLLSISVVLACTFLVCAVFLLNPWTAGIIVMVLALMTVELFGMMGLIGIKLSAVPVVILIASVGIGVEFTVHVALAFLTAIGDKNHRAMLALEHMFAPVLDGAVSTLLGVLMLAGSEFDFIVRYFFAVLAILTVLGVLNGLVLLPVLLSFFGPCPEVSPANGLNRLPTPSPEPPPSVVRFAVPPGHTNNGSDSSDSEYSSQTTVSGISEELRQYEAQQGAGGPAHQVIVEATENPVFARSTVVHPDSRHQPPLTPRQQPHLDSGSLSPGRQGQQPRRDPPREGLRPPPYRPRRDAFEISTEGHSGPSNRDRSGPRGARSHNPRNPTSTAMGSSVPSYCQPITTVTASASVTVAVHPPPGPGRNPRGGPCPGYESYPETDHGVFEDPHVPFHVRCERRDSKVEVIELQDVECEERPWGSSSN

T2: Ptch1-C-NNQ (Ptch1-C with D499N, D500N, E1081Q) (mouse, UniProt Q61115 1-618; Q61115 712-1173)
T2 construct: range 1-618;range 712-1173; also called PTCH1-NNQ; NNQ variant; not shown: 1D4 tag
T2 sequence (looked up): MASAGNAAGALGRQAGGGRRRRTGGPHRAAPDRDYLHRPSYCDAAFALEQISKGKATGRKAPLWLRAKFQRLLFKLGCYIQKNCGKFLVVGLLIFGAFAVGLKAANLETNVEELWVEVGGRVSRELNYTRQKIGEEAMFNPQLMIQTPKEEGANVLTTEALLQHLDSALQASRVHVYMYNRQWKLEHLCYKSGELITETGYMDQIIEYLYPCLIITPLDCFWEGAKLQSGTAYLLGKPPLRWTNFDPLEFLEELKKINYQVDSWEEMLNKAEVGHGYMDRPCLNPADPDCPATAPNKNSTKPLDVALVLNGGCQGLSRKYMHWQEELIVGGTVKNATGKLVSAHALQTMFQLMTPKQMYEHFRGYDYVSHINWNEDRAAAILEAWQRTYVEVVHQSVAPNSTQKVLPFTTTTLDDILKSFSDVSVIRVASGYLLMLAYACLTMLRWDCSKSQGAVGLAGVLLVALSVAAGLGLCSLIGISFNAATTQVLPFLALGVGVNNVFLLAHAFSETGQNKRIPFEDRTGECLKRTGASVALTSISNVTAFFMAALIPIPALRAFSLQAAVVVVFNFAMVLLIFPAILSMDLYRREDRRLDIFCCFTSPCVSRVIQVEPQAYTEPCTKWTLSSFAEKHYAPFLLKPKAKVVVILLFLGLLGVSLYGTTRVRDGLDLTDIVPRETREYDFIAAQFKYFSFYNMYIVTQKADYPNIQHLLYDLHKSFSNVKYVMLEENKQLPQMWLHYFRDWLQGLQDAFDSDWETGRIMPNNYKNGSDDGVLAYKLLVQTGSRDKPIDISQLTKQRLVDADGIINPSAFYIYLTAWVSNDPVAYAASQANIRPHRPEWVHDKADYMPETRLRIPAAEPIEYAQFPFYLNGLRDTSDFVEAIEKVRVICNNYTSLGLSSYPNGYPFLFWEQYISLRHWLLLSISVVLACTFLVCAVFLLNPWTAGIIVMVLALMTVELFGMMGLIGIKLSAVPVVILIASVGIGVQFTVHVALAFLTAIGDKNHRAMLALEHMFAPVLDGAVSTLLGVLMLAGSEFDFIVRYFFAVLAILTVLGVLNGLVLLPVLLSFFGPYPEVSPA

T3: Human PTCH1 on HEPM cells (human, UniProt Q13635 1-1447)
T3 sequence (looked up): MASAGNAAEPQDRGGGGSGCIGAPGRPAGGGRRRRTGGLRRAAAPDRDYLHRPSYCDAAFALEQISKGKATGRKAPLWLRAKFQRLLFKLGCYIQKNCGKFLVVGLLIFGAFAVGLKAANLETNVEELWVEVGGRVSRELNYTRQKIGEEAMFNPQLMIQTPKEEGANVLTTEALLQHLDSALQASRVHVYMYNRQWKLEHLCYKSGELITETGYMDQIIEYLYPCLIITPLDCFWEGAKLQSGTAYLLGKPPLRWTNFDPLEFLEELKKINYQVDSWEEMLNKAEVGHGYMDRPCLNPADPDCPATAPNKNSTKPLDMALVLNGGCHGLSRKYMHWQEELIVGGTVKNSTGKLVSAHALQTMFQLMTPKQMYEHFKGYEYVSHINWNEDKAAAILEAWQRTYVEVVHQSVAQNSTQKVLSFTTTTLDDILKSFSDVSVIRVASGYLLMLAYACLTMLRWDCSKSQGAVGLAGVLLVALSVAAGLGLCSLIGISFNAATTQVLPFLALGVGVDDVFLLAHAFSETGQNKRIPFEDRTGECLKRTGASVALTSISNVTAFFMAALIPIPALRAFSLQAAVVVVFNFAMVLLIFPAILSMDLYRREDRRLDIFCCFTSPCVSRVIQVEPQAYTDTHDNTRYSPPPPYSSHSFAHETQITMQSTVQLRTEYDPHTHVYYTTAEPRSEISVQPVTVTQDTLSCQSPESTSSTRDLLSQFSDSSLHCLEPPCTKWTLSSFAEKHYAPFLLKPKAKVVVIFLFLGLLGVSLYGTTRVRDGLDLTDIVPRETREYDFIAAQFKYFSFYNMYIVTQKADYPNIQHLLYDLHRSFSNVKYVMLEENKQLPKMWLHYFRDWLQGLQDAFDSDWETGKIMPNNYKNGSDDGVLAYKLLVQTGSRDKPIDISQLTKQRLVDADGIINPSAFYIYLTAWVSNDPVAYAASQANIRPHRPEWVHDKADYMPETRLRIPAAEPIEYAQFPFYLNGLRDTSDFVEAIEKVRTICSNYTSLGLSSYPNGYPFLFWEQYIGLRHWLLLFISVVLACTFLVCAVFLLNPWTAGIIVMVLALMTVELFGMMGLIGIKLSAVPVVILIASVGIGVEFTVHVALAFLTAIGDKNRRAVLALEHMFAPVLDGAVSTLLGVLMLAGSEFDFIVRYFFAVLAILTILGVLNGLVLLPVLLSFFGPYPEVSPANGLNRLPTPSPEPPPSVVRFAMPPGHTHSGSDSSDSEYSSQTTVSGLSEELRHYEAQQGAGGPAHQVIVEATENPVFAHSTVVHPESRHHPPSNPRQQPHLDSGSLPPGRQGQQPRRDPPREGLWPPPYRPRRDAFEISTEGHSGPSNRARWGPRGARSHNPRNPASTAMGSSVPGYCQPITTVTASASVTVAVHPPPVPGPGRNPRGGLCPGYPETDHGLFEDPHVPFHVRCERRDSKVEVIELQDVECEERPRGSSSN

B1: T23 nanobody (VHH)
VHH: QVQLQESGGGLVQAGGSLRLSCAASGNIFAYYIMGWYRQAPGKERELVATIDIGGNTNYADSVKGRFTISRDNAKNTVYLQMNSLKPEDTAVYYCAVQAVPYRYRRYWGQGTQVTVSS
notes: also called 23T
B2: Nanobody clone 23 (VHH)
VHH: B1 VHH with T50G, R105H, R106G
notes: Initial clone from the synthetic yeast display library; also called Nb23; NB23
B3: TI23 nanobody (VHH)
VHH: B1 VHH with T77N, Y102I

Tests used:
[1] = target: T1, PTCH1 on NIH-3T3 / 3T3-Light2 cells; test: cell-based or functional assay
[2] = target: T2, Ptch1-C-NNQ (Ptch1-C with D499N, D500N, …); test: two-color staining of yeast cells expressing the variants
[3] = target: T3, Human PTCH1 on HEPM cells; test: cell-based or functional assay

| Molecule | EC50, Gli-luciferase assay in NIH-3T3 cells [1] | binding result [2] | further results |
| --- | --- | --- | --- |
| ShhNp (ligand) | 1.4 nM |  |  |
| B1 |  | binds |  |
| B2 |  | binds |  |
| B3 | 6.9 nM |  | EC50, Gli-dependent luciferase reporter in 3T3 cells [1]: 8.6 nM; maximum response relative to ShhNp, Gli-luciferase assay [1]: ~75%; EC50, transcription of GLI1 in HEPM cells (qPCR) [3]: 16 nM; EC50, transcription of PTCH1 in HEPM cells (qPCR) [3]: 18.5 nM |
